This note sets out measurements from patent publication US20060134746, “Adding photoregulated amino acids to the genetic code” (The Scripps Research Institute, published 2006).

Some results are limits rather than exact numbers.

Data set [1] relates to CAP (catabolite activator protein) wild-type (Escherichia coli). In words: EMSA. As to conditions: 20 uM cAMP, 10 mM Tris pH 7.5, 50 mM NaCl, 1 mM MgCl2, 25 C; approximate value.
For data set [2], the system named is CAP70TAG azobenzyl-Phe mutant, irradiated at 334 nm (about 50% cis) I70(azobenzyl-Phe) (Escherichia coli). In words: EMSA. As to conditions: 20 uM cAMP, 25 C; after 334 nm irradiation 40 min at 0 C, photostationary state about 50% cis. For orientation: A gel shift assay detects complexes by their altered migration in electrophoresis.
Data set [3] concerns CAP70TAG azobenzyl-Phe mutant, trans (before irradiation) I70(azobenzyl-Phe) (Escherichia coli). The experiment in a line: EMSA. As to conditions: 20 uM cAMP, 25 C; approximate value; 4-fold lower than wt; same value recovered after switching back with light >=420 nm.
The target of data set [4] is E. coli leucyl-tRNA synthetase (ecLRS) wild-type (Escherichia coli, UniProt P07813 SEQ:1-860). In words: cell_activity; amber suppression of GAL4 (2 TAG) in S. cerevisiae, beta-galactosidase; printed as 104-fold increase (10^4) over either component alone. The source says:
The orthogonality of the E. coli leucyl suppressor tRNACUA (Leu5CUA) (FIG. 1A), which has U35 and A37 in the anticodon loop, and the corresponding ecLRS was examined in vivo in a selection strain of S. cerevisiae [MaV203:pGADGAL4(2 TAG)]. See Chin, et al., Science, 2003, 301:964-7. This strain harbors the transcriptional activator GAL4 with amber codons at two permissive sites (Thr44 and Arg110). Efficient suppression at both sites leads to expression of three reporter genes: lacZ, his3, and ura3. In the presence of either Leu5CUA or ecLRS alone, no significant β-galactosidase activity was detected above the residual activity in lysates from […] cells. […] See ibid.

E. coli leucyl-tRNA synthetase (ecLRS) wild-type, sequence (P07813 whole entry, the tested form may be a part): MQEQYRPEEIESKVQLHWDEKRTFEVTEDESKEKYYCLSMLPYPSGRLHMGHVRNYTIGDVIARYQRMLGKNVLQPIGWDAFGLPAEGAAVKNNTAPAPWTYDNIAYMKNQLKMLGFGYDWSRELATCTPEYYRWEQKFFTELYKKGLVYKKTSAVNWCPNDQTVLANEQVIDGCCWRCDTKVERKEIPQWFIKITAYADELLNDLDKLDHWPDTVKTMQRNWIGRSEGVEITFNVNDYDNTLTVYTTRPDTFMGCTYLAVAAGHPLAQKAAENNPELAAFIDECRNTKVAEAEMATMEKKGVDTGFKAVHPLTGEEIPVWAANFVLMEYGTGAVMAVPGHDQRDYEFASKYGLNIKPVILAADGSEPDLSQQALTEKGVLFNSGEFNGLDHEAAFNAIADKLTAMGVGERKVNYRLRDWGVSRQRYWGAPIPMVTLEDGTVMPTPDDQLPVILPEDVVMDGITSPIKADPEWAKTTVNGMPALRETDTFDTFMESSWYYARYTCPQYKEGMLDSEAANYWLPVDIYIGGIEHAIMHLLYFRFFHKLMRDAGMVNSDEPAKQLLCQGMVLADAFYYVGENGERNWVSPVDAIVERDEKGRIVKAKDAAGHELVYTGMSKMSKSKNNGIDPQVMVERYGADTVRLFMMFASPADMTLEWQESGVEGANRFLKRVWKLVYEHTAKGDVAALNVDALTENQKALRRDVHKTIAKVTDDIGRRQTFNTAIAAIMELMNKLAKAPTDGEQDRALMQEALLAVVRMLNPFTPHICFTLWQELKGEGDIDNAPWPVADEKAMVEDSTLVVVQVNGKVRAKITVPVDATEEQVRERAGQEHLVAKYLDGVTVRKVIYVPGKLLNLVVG

On to “118 bp lac promoter fragment with primary CAP site”, for which the figures for the Ka in data set [1], in data set [2] and in data set [3] were 1.6e+07 M⁻¹, 1e+06 M⁻¹ and 4e+06 M⁻¹, respectively.

B1: Leu5CUA amber suppressor tRNA (ssRNA)
RNA: GCCCGGAUGGUGGAAUCGGUAGACACAAGGGAUUCUAAAUCCCUCGGCGUUCGCGCUGUGCGGGUUCAAGUCCCGCUCCGGGUACCA
In data set [4], B1 had an activity above 10000 fold.
